Test results: patent US20220074941A1, “HSP90 COMBINATION THERAPY” (Sloan-Kettering Institute for Cancer Research, priority 2011, published 2022)

B1: ZG16B (protein, UniProt Q96DA0 17-172, looked up)
Pancreatic adenocarcinoma …: GKMYGPGGGKYFSTTEDYDHEITGLRVSVGLLLVKSVQVKLGDSWDVKLGALGGNTQEVTLQPGEYITKVFVAFQAFLRGMVMYTSKDRYFYFGKLDGQISSAYPSQEGQVLVGIYGQYQLLGIKSIGFEWNYPLEEPTTEPPVNLTYSANSPVGR
B2: HYOU1 (protein, UniProt Q9Y4L1 33-999, looked up)
Hypoxia up-regulated protein 1: LAVMSVDLGSESMKVAIVKPGVPMEIVLNKESRRKTPVIVTLKENERFFGDSAASMAIKNPKATLRYFQHLLGKQADNPHVALYQARFPEHELTFDPQRQTVHFQISSQLQFSPEEVLGMVLNYSRSLAEDFAEQPIKDAVITVPVFFNQAERRAVLQAARMAGLKVLQLINDNTATALSYGVFRRKDINTTAQNIMFYDMGSGSTVCTIVTYQMVKTKEAGMQPQLQIRGVGFDRTLGGLEMELRLRERLAGLFNEQRKGQRAKDVRENPRAMAKLLREANRLKTVLSANADHMAQIEGLMDDVDFKAKVTRVEFEELCADLFERVPGPVQQALQSAEMSLDEIEQVILVGGATRVPRVQEVLLKAVGKEELGKNINADEAAAMGAVYQAAALSKAFKVKPFVVRDAVVYPILVEFTREVEEEPGIHSLKHNKRVLFSRMGPYPQRKVITFNRYSHDFNFHINYGDLGFLGPEDLRVFGSQNLTTVKLKGVGDSFKKYPDYESKGIKAHFNLDESGVLSLDRVESVFETLVEDSAEEESTLTKLGNTISSLFGGGTTPDAKENGTDTVQEEEESPAEGSKDEPGEQVELKEEAEAPVEDGSQPPPPEPKGDATPEGEKATEKENGDKSEAQKPSEKAEAGPEGVAPAPEGEKKQKPARKRRMVEEIGVELVVLDLPDLPEDKLAQSVQKLQDLTLRDLEKQEREKAANSLEAFIFETQDKLYQPEYQEVSTEEQREEISGKLSAASTWLEDEGVGATTVMLKEKLAELRKLCQGLFFRVEERKKWPERLSALDNLLNHSSMFLKGARLIPEMDQIFTEVEMTTLEKVINETWAWKNATLAEQAKLPATEKPVLLSKDIEAKMMALDREVQYLLNKAKFTKPRPRPKDKNGTRAEPPLNASASDQGEKVIPPAGQTEDAEPISEPEKVETGSEPGDTEPLELGGPGAEPEQKEQSTGQKRPLKNDEL
B3: TRIM56 (protein, UniProt Q9BRZ2 1-755, looked up)
E3 ubiquitin-protein ligase …: MVSHGSSPSLLEALSSDFLACKICLEQLRAPKTLPCLHTYCQDCLAQLADGGRVRCPECRETVPVPPEGVASFKTNFFVNGLLDLVKARACGDLRAGKPACALCPLVGGTSTGGPATARCLDCADDLCQACADGHRCTRQTHTHRVVDLVGYRAGWYDEEARERQAAQCPQHPGEALRFLCQPCSQLLCRECRLDPHLDHPCLPLAEAVRARRPGLEGLLAGVDNNLVELEAARRVEKEALARLREQAARVGTQVEEAAEGVLRALLAQKQEVLGQLRAHVEAAEEAARERLAELEGREQVARAAAAFARRVLSLGREAEILSLEGAIAQRLRQLQGCPWAPGPAPCLLPQLELHPGLLDKNCHLLRLSFEEQQPQKDGGKDGAGTQGGEESQSRREDEPKTERQGGVQPQAGDGAQTPKEEKAQTTREEGAQTLEEDRAQTPHEDGGPQPHRGGRPNKKKKFKGRLKSISREPSPALGPNLDGSGLLPRPIFYCSFPTRMPGDKRSPRITGLCPFGPREILVADEQNRALKRFSLNGDYKGTVPVPEGCSPCSVAALQSAVAFSASARLYLINPNGEVQWRRALSLSQASHAVAALPSGDRVAVSVAGHVEVYNMEGSLATRFIPGGKASRGLRALVFLTTSPQGHFVGSDWQQNSVVICDGLGQVVGEYKGPGLHGCQPGSVSVDKKGYIFLTLREVNKVVILDPKGSLLGDFLTAYHGLEKPRVTTMVDGRYLVVSLSNGTIHIFRVRSPDS

Tests used:
[1] = test system: Hsp90 complexes in Mia-PaCa-2 cell extract; assay: Nano-LC-MS/MS of PU-beads pull-downs; format: binding, human; details: protein identified in PU-beads pull-down of Mia-PaCa-2 cell extract; QSTAR-Elite QTof MS
Experimental: (§1) Lysates prepared as mentioned above were first pre-cleaned by incubation with control beads overnight at 4° C. […] Beads were washed with lysis buffer, proteins eluted by boiling in 2% SDS, separated on a denaturing gel and Coomassie stained according to manufacturer's procedure (Biorad). […] Analyses of the batch purified pools were done using a QSTAR-Elite hybrid quadrupole time-of-flight mass spectrometer (QTof MS) (AB/MDS Sciex), equipped with a nano spray ion source. Peptide mixtures (in 20 μL) are loaded onto a trapping guard column (0.3×5-mm PepMap C18 100 cartridge from LC Packings) using an Eksigent nano MDLC system (Eksigent Technologies, Inc) at a flow rate of 20 μL/min. […] Electrospray ionization (ESI) needle voltage was set at about 1800 V. The mass analyzer is operated in automatic, data-dependent MS/MS acquisition mode, with the threshold set to 10 counts per second of doubly or triply charged precursor ions selected for fragmentation scans. Survey scans of 0.25 sec are recorded from 400 to 1800 amu; up to 3 MS/MS scans are then collected sequentially for the selected precursor ions, recording from 100 to 1800 amu. The collision energy is automatically adjusted in accordance with the m/z value of the precursor ions selected for MS/MS. Selected precursor ions are excluded from repeated selection for 60 sec after the end of the corresponding fragmentation duty cycle. […] One missed tryptic cleavage site was allowed, precursor ion mass tolerance=0.4 Da fragment ion mass tolerance=0.4 Da, protein modifications were allowed for Met-oxide, Cys-acrylamide and N-terminal acetylation. MudPit scoring was typically applied with ‘require bold red’ activated, and using significance threshold score p<0.05. Unique peptide counts (or ‘spectral counts’) and percent sequence coverages for all identified proteins were exported to Scaffold Proteome Software (version 2_06_01, www.proteomesoftware.com) for further bioinformatic analysis (Table 5a). Using output from Mascot, Scaffold validates, organizes, and interprets mass spectrometry data, allowing more easily to manage large amounts of data, to compare samples, and to search for protein modifications.

[2] = test system: Hsp90 complexes in K562 cell extract; assay: Nano-LC-MS/MS of PU-beads pull-downs; format: binding; details: protein identified in PU-beads pull-down of K562 cell extract, QSTAR-Elite QTof MS
Experimental: Protein cargo isolated from cell lysate with PU-beads or control-beads was subjected to proteomic analysis by nano liquid chromatography coupled to tandem mass spectrometry (nano LC-MS/MS). Initial protein identification was performed using the Mascot search engine, and was further evaluated using Scaffold Proteome Software (Tables 5a-d).
as §1

Molecule	Number of Assigned Spectra, Mia-Paca 2 [1]	Number of Assigned Spectra, K562 Prep 1 [2]	Number of Assigned Spectra, K562 Prep 2 [2]
B1	0	0	3
B2	0	0	3
B3	3	0	0
